B1: His-ROP10 (natural protein)
chain: not shown
B2: His-ROP6 (natural protein)
chain: not shown
B3: His-ROP2 (natural protein)
chain: not shown

What follows are binders tested against T1, GST-GDI1(3D), phosphomimetic form GDI1 S45D S48D T52D (Arabidopsis, UniProt Q9SFC6 1-240, S45D | S48D | T52D) (assay: pull-down).
T1 sequence: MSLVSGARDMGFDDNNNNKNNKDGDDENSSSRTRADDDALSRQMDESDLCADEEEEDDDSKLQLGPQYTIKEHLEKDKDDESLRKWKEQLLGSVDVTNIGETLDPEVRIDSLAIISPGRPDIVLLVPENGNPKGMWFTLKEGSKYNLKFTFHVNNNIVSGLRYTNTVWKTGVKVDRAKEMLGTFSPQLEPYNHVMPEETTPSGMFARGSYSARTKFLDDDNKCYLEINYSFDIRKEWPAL
B1: binds.
B2: binds.
B3: binds.
